This note sets out measurements from article PMC10160006 (Nature chemical biology, 2023).

B1: human EXT1 (residues 28-746), fusion tags removed by TEV protease (enzyme, UniProt Q16394 28-746, looked up)
chain: FRASRSHSRREEHSGRNGLHHPSPDHFWPRFPDALRPFVPWDQLENEDSSVHISPRQKRDANSSIYKGKKCRMESCFDFTLCKKNGFKVYVYPQQKGEKIAESYQNILAAIEGSRFYTSDPSQACLFVLSLDTLDRDQLSPQYVHNLRSKVQSLHLWNNGRNHLIFNLYSGTWPDYTEDVGFDIGQAMLAKASISTENFRPNFDVSIPLFSKDHPRTGGERGFLKFNTIPPLRKYMLVFKGKRYLTGIGSDTRNALYHVHNGEDVVLLTTCKHGKDWQKHKDSRCDRDNTEYEKYDYREMLHNATFCLVPRGRRLGSFRFLEALQAACVPVMLSNGWELPFSEVINWNQAAVIGDERLLLQIPSTIRSIHQDKILALRQQTQFLWEAYFSSVEKIVLTTLEIIQDRIFKHISRNSLIWNKHPGGLFVLPQYSSYLGDFPYYYANLGLKPPSKFTAVIHAVTPLVSQSQPVLKLLVAAAKSQYCAQIIVLWNCDKPLPAKHRWPATAVPVVVIEGESKVMSSRFLPYDNIITDAVLSLDEDTVLSTTEVDFAFTVWQSFPERIVGYPARSHFWDNSKERWGYTSKWTNDYSMVLTGAAIYHKYYHYLYSHYLPASLKNMVDQLANCEDILMNFLVSAVTKLPPIKVTQKKQYKETMMGQTSRASRWADPDHFAQRQSCMNTFASWFGYMPLIHSQMRLDPVLFKDQVSILRKKYRDIERL
modifications: NAG at Asn330
B2: human EXT2 (residues 46-718), fusion tags removed by TEV protease (enzyme, UniProt Q93063 46-718, looked up)
chain: WPHSIESSNDWNVEKRSIRDVPVVRLPADSPIPERGDLSCRMHTCFDVYRCGFNPKNKIKVYIYALKKYVDDFGVSVSNTISREYNELLMAISDSDYYTDDINRACLFVPSIDVLNQNTLRIKETAQAMAQLSRWDRGTNHLLFNMLPGGPPDYNTALDVPRDRALLAGGGFSTWTYRQGYDVSIPVYSPLSAEVDLPEKGPGPRQYFLLSSQVGLHPEYREDLEALQVKHGESVLVLDKCTNLSEGVLSVRKRCHKHQVFDYPQVLQEATFCVVLRGARLGQAVLSDVLQAGCVPVVIADSYILPFSEVLDWKRASVVVPEEKMSDVYSILQSIPQRQIEEMQRQARWFWEAYFQSIKAIALATLQIINDRIYPYAAISYEEWNDPPAVKWGSVSNPLFLPLIPPQSQGFTAIVLTYDRVESLFRVITEVSKVPSLSKLLVVWNNQNKNPPEDSLWPKIRVPLKVVRTAENKLSNRFFPYDEIETEAVLAIDDDIIMLTSDELQFGYEVWREFPDRLVGYPGRLHLWDHEMNKWKYESEWTNEVSMVLTGAAFYHKYFNYLYTYKMPGDIKNWVDAHMNCEDIAMNFLVANVTGKAVIKVTPRKKFKCPECTAIDGLSLDQTHMVERSECINKFASVFGTMPLKVVEHRADPVLYKDDFPEKLKSFPNIGSL
modifications: N-glycan on Asn637

The target in assay [1] is B2. The assay is described as follows: cryo-EM structure.
The target in assay [2] is B1. Put plainly: cryo-EM structure.
Assay [3] addresses T1, EXT1-pGEn1 (human EXT1 residues 28-746 with N-terminal His8 and StrepII tag) (human, UniProt Q16394 28-746).
T1 sequence (looked up): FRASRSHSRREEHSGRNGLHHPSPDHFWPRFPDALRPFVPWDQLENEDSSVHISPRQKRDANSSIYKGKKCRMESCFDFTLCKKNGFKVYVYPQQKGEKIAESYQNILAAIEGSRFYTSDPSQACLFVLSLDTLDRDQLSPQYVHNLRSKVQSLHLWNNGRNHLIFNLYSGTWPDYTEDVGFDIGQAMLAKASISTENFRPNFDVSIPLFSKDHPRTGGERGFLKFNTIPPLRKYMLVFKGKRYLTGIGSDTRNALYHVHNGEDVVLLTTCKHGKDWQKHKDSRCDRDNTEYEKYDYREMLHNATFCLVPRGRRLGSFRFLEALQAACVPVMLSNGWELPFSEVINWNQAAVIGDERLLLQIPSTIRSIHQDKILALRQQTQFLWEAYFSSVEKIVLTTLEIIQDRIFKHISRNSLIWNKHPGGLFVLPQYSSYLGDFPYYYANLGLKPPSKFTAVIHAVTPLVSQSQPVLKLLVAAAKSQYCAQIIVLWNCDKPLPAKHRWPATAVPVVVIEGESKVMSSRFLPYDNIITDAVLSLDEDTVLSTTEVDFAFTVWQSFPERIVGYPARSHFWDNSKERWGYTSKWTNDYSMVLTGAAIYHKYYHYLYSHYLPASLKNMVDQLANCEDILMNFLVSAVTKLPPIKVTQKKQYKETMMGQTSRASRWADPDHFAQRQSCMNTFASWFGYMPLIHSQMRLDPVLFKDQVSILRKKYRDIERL
Put plainly: SEC-MALS.

As for B1, the “stoichiometry N” value in assay [1] was 1 EXT1:EXT2. In the case of B2, the binding result in assay [2] was “binds”.

B3: EXT2-pGEn2 (human EXT2 residues 46-718 with N-terminal His8, AviTag and GFP) (enzyme, UniProt Q93063 46-718, looked up)
chain: WPHSIESSNDWNVEKRSIRDVPVVRLPADSPIPERGDLSCRMHTCFDVYRCGFNPKNKIKVYIYALKKYVDDFGVSVSNTISREYNELLMAISDSDYYTDDINRACLFVPSIDVLNQNTLRIKETAQAMAQLSRWDRGTNHLLFNMLPGGPPDYNTALDVPRDRALLAGGGFSTWTYRQGYDVSIPVYSPLSAEVDLPEKGPGPRQYFLLSSQVGLHPEYREDLEALQVKHGESVLVLDKCTNLSEGVLSVRKRCHKHQVFDYPQVLQEATFCVVLRGARLGQAVLSDVLQAGCVPVVIADSYILPFSEVLDWKRASVVVPEEKMSDVYSILQSIPQRQIEEMQRQARWFWEAYFQSIKAIALATLQIINDRIYPYAAISYEEWNDPPAVKWGSVSNPLFLPLIPPQSQGFTAIVLTYDRVESLFRVITEVSKVPSLSKLLVVWNNQNKNPPEDSLWPKIRVPLKVVRTAENKLSNRFFPYDEIETEAVLAIDDDIIMLTSDELQFGYEVWREFPDRLVGYPGRLHLWDHEMNKWKYESEWTNEVSMVLTGAAFYHKYFNYLYTYKMPGDIKNWVDAHMNCEDIAMNFLVANVTGKAVIKVTPRKKFKCPECTAIDGLSLDQTHMVERSECINKFASVFGTMPLKVVEHRADPVLYKDDFPEKLKSFPNIGSL
On to B3, for which the binding result in assay [3] is on record as “binds”.
